2 substances from paper PMC4196948 can be followed below.

Where “and” joins values, the source holds several entries; their conditions need not be identical. Identical values can stand only once.

Experiment [1] has as its target tcSOD truncation mutant M202 (residues 1-201) (not stated (metagenomic library of hot springs in Tengchong, China)). Kind of experiment: cross-linking; glutaraldehyde, 20 mM sodium phosphate pH 7.4, after heating at 25°C or 80°C for 50 min, cross-linked 1 or 5 min; read by 12.5% SDS-PAGE.
Experiment [2] deals with wild type tcSOD (hyperthermostable Fe-superoxide dismutase from Tengchong hot springs) (not stated (metagenomic library of hot springs in Tengchong, China)). Briefly: native gel or EMSA; tetramers and high-order oligomers separated by ion exchange (Resource Q), concentrated to 0.3 mg/ml, heated at 80°C or 95°C, then 10% native-PAGE; step: tetramers to octamers. For orientation: A gel shift assay detects complexes by their altered migration in electrophoresis.

Experiment [3] shares this target. Kind of experiment: SEC; Superdex 200HR 10/30, 20 mM sodium phosphate pH 7.4, 25°C, 0.5 ml/min; protein 0.1 to 1.0 mg/ml, not cross-linked. On the technique in general: SEC sorts molecules by how far they enter the pores of the column.
The target is the same in experiment [4]. Briefly: native gel or EMSA; 10% native-PAGE (also 5-15% gradient native-PAGE), 20 mM PBS pH 7.4, 0.1-1.0 mg/ml (mutants 1 mg/ml); the predominant oligomer (quaternary structure).
For experiment [5] the target is unchanged. Briefly: native gel or EMSA; 10% native-PAGE (also 5-15% gradient), 20 mM PBS pH 7.4, 0.1-1.0 mg/ml (mutants 1 mg/ml), bands quantified by GIS software; step: tetramers to high-order oligomers; fractions almost unchanged with 0-5 M NaCl, pH 3-11 or 80°C for 60 min.
For experiment [6] the target is unchanged. Briefly: cross-linking; 0.5 mM DSP for 10 min after 50 min at the given temperature, without DTT; read by SDS-PAGE and native-PAGE.
Experiment [7] shares this target. Briefly: cross-linking; glutaraldehyde, 20 mM sodium phosphate pH 7.4, after heating at 25°C or 80°C for 50 min, cross-linked 1 or 5 min; read by 12.5% SDS-PAGE.

Usually stoichiometry N stands for the number of molecules, sites or subunits per partner or assembly. Turning to “tcSOD truncation mutant M202 (residues 1-201) (domain or fragment)”, the stoichiometry N in experiment [1] was 4 and 2.

Take “wild type tcSOD (hyperthermostable Fe-superoxide dismutase from Tengchong hot springs) (enzyme)”: the stoichiometry N was 8 in experiment [2]; 4 in experiment [3]; 4 in experiment [4]; greater than 8 in experiment [5]; 2 in experiment [6]; 4 and 2 in experiment [7]. In experiment [5], the fraction of high-order oligomers (at 0.1 mg/ml) was 1.5%. Also, the fraction of high-order oligomers (at 1.0 mg/ml) in experiment [5] was found to be 5%.
